Several values for one entry are separate records, joined by “and”; a condition that tells them apart may be missing. Equal values may be shown once.
B1: 54I59D / 54G101V (antibody, V domains shown)
VH: EVQLVESGGGLVQPGGSLRLSCAASGYTFTDYYMNWVRQAPGKGLEWIGDINPITGDTDYNADFKRRFTFSLDTSKSTAYLQMNSLRAEDTAVYYCTREGPSFAYWGQGTLVTVSS
VL: DIQLTQSPSSLSASVGDRVTITCRSSQTIVHSNGDTYLEWYQQKPGKAPNLLIGKVSNRFSGVPSRFSGSGSGTDFTLTISSLQPEDFATYYCFQGSHVPVTFGQGTKVEIK
notes: KCD119 TAF variant; full antibody captured on protein A; also called 54I59D / 4G101V 5
B2: OG1965 (antibody, IgG1)
heavy: EVQLVESGGGLVQPGGSLRLSCAASGYTFTDYYINWVRQAPGKGLEWIGDINPITGDTDYNADFKRRFTFSLDTSKSTAYLQMSSLRAEDTAVYYCTREGPSFAYWGQGTLVTVSSASTKGPSVFPLAPSSKSTSGGTAALGCLVKDYFPEPVTVSWNSGALTSGVHTFPAVLQSSGLYSLSSVVTVPSSSLGTQTYICNVNHKPSNTKVDKKVEPKSCDKTHTCPPCPAPEAAGAPSVFLFPPKPKDTLMISRTPEVTCVVVDVSHEDPEVKFNWYVDGVEVHNAKTKPREEQYNSTYRVVSVLTVLHQDWLNGKEYKCKVSNKALPAPIEKTISKAKGQPREPQVYTLPPSREEMTKNQVSLTCLVKGFYPSDIAVEWESNGQPENNYKTTPPVLDSDGSFFLYSKLTVDKSRWQQGNVFSCSVMHEALHNHYTQKSLSCSPGK
light: DIQLTQSPSSLSASVGDRVTITCRSSQTIVHSNGDTYLEWYQQKPGKAPNLLIRKVSNRFSGVPSRFSGSGSGTDFTLTISSLQPEDFATYYCFQGSHVPVTFGQGTKVEIKRTVAAPSVFIFPPSDEQLKSGTASVVCLLNNFYPREAKVQWKVDNALQSGNSQESVTEQDSKDSTYSLSSTLTLSKADYEKHKVYACEVTHQGLSSPVTKSFNRGEC
notes: humanized IgG1 kappa with L234A, L235A, G237A and L443C (EU); also called 34I54I59D84S/54R101V; 34I54I59D84S (heavy) / 54R101V (light)

Legend:
[1] = molecular target: T1, serum purified human Complement Factor D (human, UniProt P00746 26-253); assay: SPR Biacore, antibody on protein A chip, single cycle kinetics, 37 C; earlier run in the table (r34, Rmax 17.1);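 as to kon: antibodies captured on the protein A surface to roughly 70 RU in HBS-EP+ buffer, with rate and affinity constants fitted using BIAevaluation software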
T1 construct: Serum purified protein flowed over the captured antibodies; also called CFD; human CFD
Description: (§1) Antibodies were diluted to 0.5 ug/ml in HBS-EP+ buffer and captured on a protein A chip for 25 seconds to reach approximately 70 resonance units. […] Binding kinetic information was obtained by the BIAevaluation software (GE).

[2] = molecular target: T1, serum purified human Complement Factor D; assay: SPR Biacore, antibody on protein A chip, single cycle kinetics, 25 C; earlier run in the table (r34, Rmax 14.8);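 as to koff: antibodies captured to roughly 70 RU on the protein A surface in HBS-EP+ running buffer, with kinetic constants derived by BIAevaluation fitting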;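 as to kon: antibodies captured to roughly 70 RU on the protein A surface in HBS-EP+ running buffer, with kinetic constants derived by BIAevaluation fitting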
Description: as §1

[3] = molecular target: T1, serum purified human Complement Factor D; assay: SPR Biacore, antibody on protein A chip, single cycle kinetics, 25 C;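 also: antibodies captured to roughly 70 RU on the protein A surface in HBS-EP+ running buffer, with kinetic constants derived by BIAevaluation fitting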
Description: as §1

[4] = molecular target: T1, serum purified human Complement Factor D; assay: SPR Biacore, antibody on protein A chip, single cycle kinetics, 37 C;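 also: antibodies captured on the protein A surface to roughly 70 RU in HBS-EP+ buffer, with rate and affinity constants fitted using BIAevaluation software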
Description: as §1

Histidine-tagged FcγRI = Histidine-tagged FcγRI (UniProt P12314 16-288, limits assumed); assay: SPR (Biacore T200, 25 C), His-tagged FcγRI captured on anti-His CM5 chip, antibody injected, single cycle kinetics
Description: (§2) For Fcγ receptor Binding Kinetics on Biacore, all binding kinetics were performed at 25° C. using a BIAcore T200. Briefly, an anti-his antibody was immobilized on a CM5 chip. Histidine-tagged FcγRI (FIG. 15A and FIG. 15B) and FcγRIIIa (FIG. 16A and FIG. 16B) at a concentration of 0.5 μg/mL prepared in HBS-EP buffer (0.01M HEPES pH7.4, 0.15M NaCl, 3 mM EDTA, 0.005% Tween-20) were injected independently for 60-s using a flow rate of 5 μL/min in the active flow cell only. […] Following each run, flow cells were regenerated with a 60 s injection of 10 mM glycine pH 1.7 using a flow-rate of 50μ/mL. Data was double referenced, using subtraction of both reference flow cell and blank cycles. Analysis was performed using BIA evaluation software.

[5] = molecular target: human Complement Factor D (CFD), purified from human serum (human, UniProt P00746 26-253); assay: cell-based or functional assay
[6] = molecular target: Histidine-tagged FcγRIIIa (UniProt P08637 17-208, limits assumed); assay: SPR (Biacore T200, 25 C), His-tagged FcγRIIIa captured on anti-His CM5 chip, antibody injected, single cycle kinetics
Description: as §2

purified human C1q = molecular target: T2, purified human C1q (human, UniProt P02745 23-245; P02746 28-253; P02747 29-245); assay: ELISA, antibody coated in a 1:2 titration from 10 ug/mL, purified human C1q at 5 ug/mL, HRP anti-human C1q
T2 construct: also called Complement C1q
T2 sequence (P02745 23-245 limits assumed, chain 1 of 3): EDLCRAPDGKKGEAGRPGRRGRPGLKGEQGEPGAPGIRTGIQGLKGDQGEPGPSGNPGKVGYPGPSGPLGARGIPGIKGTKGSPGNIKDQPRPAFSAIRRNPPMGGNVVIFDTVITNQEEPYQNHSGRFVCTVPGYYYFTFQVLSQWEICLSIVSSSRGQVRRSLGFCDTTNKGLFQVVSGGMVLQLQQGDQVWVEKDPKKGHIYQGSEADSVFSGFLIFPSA
T2 sequence (P02746 28-253 limits assumed, chain 2 of 3): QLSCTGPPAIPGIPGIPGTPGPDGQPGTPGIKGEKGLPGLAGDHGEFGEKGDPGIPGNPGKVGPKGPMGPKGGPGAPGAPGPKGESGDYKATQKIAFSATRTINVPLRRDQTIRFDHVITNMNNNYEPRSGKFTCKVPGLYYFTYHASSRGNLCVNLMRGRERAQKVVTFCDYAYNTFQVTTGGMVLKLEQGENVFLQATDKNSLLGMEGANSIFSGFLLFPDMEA
T2 sequence (P02747 29-245 limits assumed, chain 3 of 3): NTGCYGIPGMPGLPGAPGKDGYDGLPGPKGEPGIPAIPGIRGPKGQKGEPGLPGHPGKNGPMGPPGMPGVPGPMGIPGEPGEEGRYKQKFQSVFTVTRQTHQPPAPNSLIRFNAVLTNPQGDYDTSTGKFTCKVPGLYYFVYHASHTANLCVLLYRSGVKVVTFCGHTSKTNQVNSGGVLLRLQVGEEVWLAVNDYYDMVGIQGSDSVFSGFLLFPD
Description: Complement engagement liabilities was assessed by C1q ELISA binding. Briefly, antibody panel was titrated 1:2 from a top concentration of 10 ug/mL in 1×PBS for overnight coating at 4 C. Plates were then blocked After a 2 hour blocking step in 1% BSA, purified human C1q was then applied at 5 ug/mL in 1% BSA for 2 hours at room temperature followed by detection with HRP-conjugated anti-human C1q antibody and TMB development.

T1 sequence (P00746 26-253): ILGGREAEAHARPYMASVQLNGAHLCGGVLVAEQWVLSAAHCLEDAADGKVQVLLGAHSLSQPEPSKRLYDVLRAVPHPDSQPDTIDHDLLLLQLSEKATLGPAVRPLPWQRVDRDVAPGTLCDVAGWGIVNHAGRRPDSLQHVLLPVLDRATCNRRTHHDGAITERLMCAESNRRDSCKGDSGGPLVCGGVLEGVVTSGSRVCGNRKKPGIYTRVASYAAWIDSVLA
Sequence of human Complement Factor D (CFD), purified from human serum (P00746 26-253): as above
Sequence of Histidine-tagged FcγRIIIa (P08637 17-208 limits assumed): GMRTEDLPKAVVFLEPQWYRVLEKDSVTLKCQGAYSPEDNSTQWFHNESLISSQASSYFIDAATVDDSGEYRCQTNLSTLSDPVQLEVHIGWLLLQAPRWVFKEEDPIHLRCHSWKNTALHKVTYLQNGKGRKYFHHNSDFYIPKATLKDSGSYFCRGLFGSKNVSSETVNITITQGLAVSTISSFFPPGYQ
Sequence of Histidine-tagged FcγRI (P12314 16-288 limits assumed): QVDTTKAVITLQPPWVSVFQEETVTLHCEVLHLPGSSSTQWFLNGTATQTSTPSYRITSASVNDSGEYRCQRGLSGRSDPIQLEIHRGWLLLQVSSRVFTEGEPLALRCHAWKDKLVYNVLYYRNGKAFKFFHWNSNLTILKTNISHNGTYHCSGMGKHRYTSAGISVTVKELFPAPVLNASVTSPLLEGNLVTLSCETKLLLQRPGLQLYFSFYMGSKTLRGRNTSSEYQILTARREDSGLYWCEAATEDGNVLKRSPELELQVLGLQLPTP

Row | Binder | Kd [1] [nM] | Kd [2] [nM] | koff [3] [s⁻¹] | kon [3] | kon [4] | binding result (Histidine-tagged FcγRI) | EC50, block of C3bB cleavage (Bb ELISA) [5] [nM] | EC50, block of Factor B cleavage (western blot) [5] [nM] | binding result [6] | binding result (purified human C1q)
1 | B1 | 0.00774 | 0.00833 | 9.56e-05 | 1.15e+07 M⁻¹ s⁻¹ and 5.91e+06 M⁻¹ s⁻¹ | 2.78e+07 M⁻¹ s⁻¹ and 1.36e+07 M⁻¹ s⁻¹ | – | – | – | – | –
2 | B2 | – | – | – | – | – | no binding | 1.9 | 7 | no binding | no binding (tested: 10 ug/mL)

Source: US20180334496A1 (KODIAK SCIENCES, published 2018)
